Measurements: patent publication US20200115452A1 (Dana-Farber, published 2020)
Where no end group is shown, it is not given here.

B1: anti-phosphorylated PD-1 monoclonal antibody 407.6G12 (antibody, mouse IgG2a, V domains shown)
VH: EVQLVESGGGLVQPKGSLKLSCAASGFTFNTYAMNWVRQAPGKGLEWVARIRSKSDNYATYYADSVKDRFTISRDDSQSMLYLQMNNLKTEDTAMYYCMRGITTVNVWGAGTTVTVSS
VL: DIVMTQSQKFMSTSVGDRVSVTCKASQNVGTNVAWYQQKPGQSPKALIYSASYRYSGVPDRFTGSGSGTDFTLTISNVHSEDLAEYFCQQYNFYPLTFGAGTKLELK
notes: Mouse IgG2a, kappa; A BV421-conjugated version was used for flow cytometry; also called clone 407.6G12; 307.6G12
B2: rabbit mAb 6H2/6K2 (antibody, V domains shown)
VH: CQSVEESGGRLVTPGTPLTLTCTVSGIDLNYYAMGWVRQAPGKGLEYIGWIKSSGSAYYARWVNGRFTISKTSSTTVDLKMTSPTTEDTATYFCARDGHNIIEYYDLWGQGTLVTVSS
VL: AIKMTQTPSSAEAAVGGTITINCQASQSISSSLAWYQQKPGQPPKLLIYKASTLASGVPSRFSGSRSGTQFTLTISGVQCDDAATYYCQQGWSGDNVDNIFGGGTEVVVK
notes: Rabbit monoclonal tested as culture supernatant
B3: rabbit mAb 2H2/2K4 (antibody, V domains shown)
VH: QSLEESGGDLVKPGASLTLTCKASGFSFSGSYHMCWVRQAPGKGLEWIAHIYVGSSGGTYYASWAKGRFAISKTSSTTVTLQMTSLTAADTATYFCARRDTGGTSAYALWGQGTLVTVSS
VL: DVVMTQTPSSASEPVGGTVTIKCQASQSVSSRLAWYQQKPGQPPKLLIYKASTLASGVPSRFKGSGYGTEFTLTISDLECADAATYYCQCTYIDSTYGNNFGGGTEVVVK
notes: Rabbit monoclonal tested as culture supernatant, detected with anti-rabbit IgG Fc

How the values were obtained:
[1] = target: T1, BSA (UniProt P02769 25-607); test: ELISA, hybridoma screen
T1 construct: Carrier control in the hybridoma ELISA screen; also called carrier
T1 sequence (P02769 25-607 limits assumed): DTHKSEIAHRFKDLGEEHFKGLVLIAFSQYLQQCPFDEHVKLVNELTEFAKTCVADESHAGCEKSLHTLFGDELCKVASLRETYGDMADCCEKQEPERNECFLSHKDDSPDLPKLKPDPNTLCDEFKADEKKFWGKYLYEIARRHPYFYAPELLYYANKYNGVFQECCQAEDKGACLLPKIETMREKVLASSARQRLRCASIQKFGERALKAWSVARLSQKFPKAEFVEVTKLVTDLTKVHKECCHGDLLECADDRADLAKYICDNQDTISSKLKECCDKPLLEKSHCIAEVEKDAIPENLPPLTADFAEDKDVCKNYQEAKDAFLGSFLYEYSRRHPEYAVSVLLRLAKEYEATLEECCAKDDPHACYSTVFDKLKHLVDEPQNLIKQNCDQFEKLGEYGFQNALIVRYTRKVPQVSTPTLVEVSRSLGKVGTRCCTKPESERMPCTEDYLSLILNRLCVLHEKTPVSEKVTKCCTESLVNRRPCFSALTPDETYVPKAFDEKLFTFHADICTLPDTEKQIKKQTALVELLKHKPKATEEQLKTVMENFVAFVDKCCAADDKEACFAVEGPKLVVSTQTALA
Source text: (§1) Hybridoma wells were screened by western blot on pervanadate treated Jurkat-hPD-1 lysates and by ELISA on PD-1 p248Tyr peptide conjugated to BSA and lack of reactivity to unphosphorylated peptide or BSA.

[2] = target: T2, unphosphorylated peptide (unphosphorylated form of the PD-1 p248Tyr peptide) (human, not fully specified); test: ELISA, hybridoma screen
T2 peptide: VPEQTEYATIVF
Source text: as §1

[3] = target: T3, PD-1 pITIM peptide KEDPSAVPVFSVD(pY)GELDFQWRE (phosphotyrosine (pY) at peptide residue 14 (PD-1 ITIM tyrosine)); test: peptide ELISA with antibody supernatants
T3 construct: Coated on ELISA plates at 1 µg/ml; also called negative control pITIM peptide
T3 peptide: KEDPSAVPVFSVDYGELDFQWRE

Row | binding result [1] | binding result [2] | binding result [3] | Binder
1 | no binding | no binding | – | B1
2 | – | – | no binding | B2
3 | – | – | no binding | B3
